Experimental findings from US10072252B2 (priority 2013, dated 2018) are described below.

The subject of one data set is P. aeruginosa PAO1. Particulars: in vivo.
In data set [1] the test system is P. aeruginosa PAO1 biofilm formation. The class given is cell-based.
The conditions of data set [2]: rat, in vivo.
The format of data set [3] is physicochemical. Conditions: pH 8.
For a further data set, the system named is lasB transcription. The class given is cell-based, P. aeruginosa.
The next data set concerns 3-oxo-C12 AHL. Format: cell-based, Pseudomonas aeruginosa.
The subject of data set [4] is sea urchins larvae (Paracentrotus lividus). Particulars: in vivo.

B1: SsoPox W263I: SEQ ID NO: 3 with substitution of tryptophan W in position 263 by isoleucine I (protein, listed as Sulfolobus solfataricus)
chain: MRIPLVGKDSIESKDIGFTLIHEHLRVFSEAVRQQWPHLYNEDEEFRNAVNEVKRAMQFGVKTIVDPTVMGLGRDIRFMEKVVKATGINLVAGTGIYIYIDLPFYFLNRSIDEIADLFIHDIKEGIQGTLNKAGFVKIAADEPGITKDVEKVIRAAAIANKETKVPIITHSNAHNNTGLEQQRILTEEGVDPGKILIGHLGDTDNIDYIKKIADKGSFIGLDRYGLDLFLPVDKRNETTLRLIKDGYSDKIMISHDYCCTIDIGTAKPEYKPKLAPRWSITLIFEDTIPFLKRNGVNEEVIATIFKENPKKFFS
B1: in the data set on P. aeruginosa PAO1, the “mean time to death” value turned out to be 37 ± 13 h and the mortality rate worked out at 20%. For the same molecule, in data set [1], the “[C1/2] of inhibition of biofilm formation” value is listed as “approximately 170 μg/mL”. In data set [2], the “acute inflammatory reactions in the respiratory parenchyma” value is reported as “no observable acute inflammatory reactions”, the “histological analysis of lungs” value is “normal lung parenchyma”, the “macroscopic aspect of lungs removed after treatment” value is given as “no macroscopic signs of injury” and the spontaneous mortality entry is listed as “no spontaneous mortality was observed”. The “tolerance of tracheal instillation” value in data set [2] was “well tolerated”. In addition, the melting temperature in data set [3] is 87.8±1.2 °C. In addition, the “half inhibition concentration ([C1/2]) of lasB transcription” value with lasB transcription is “around 0.5 μg/mL”. Also, the “relative lactonase activity in screening (3-oxo-C12 AHL hydrolysis)” value with 3-oxo-C12 AHL is “selected for a potential lactonase activity improvement”.

B2: SsoPox: SsoPox enzyme tested for ecotoxicity; variant not specified (protein, UniProt Q97VT7 1-314, looked up)
Aryldialkylphosphatase: MRIPLVGKDSIESKDIGFTLIHEHLRVFSEAVRQQWPHLYNEDEEFRNAVNEVKRAMQFGVKTIVDPTVMGLGRDIRFMEKVVKATGINLVAGTGIYIYIDLPFYFLNRSIDEIADLFIHDIKEGIQGTLNKAGFVKIAADEPGITKDVEKVIRAAAIANKETKVPIITHSNAHNNTGLEQQRILTEEGVDPGKILIGHLGDTDNIDYIKKIADKGSFIGLDRYGLDLFLPVDKRNETTLRLIKDGYSDKIMISHDYCCTIDWGTAKPEYKPKLAPRWSITLIFEDTIPFLKRNGVNEEVIATIFKENPKKFFS
Consider B2, for which the “effects on viability and development” value in data set [4] was “no effects have been observed”.
